Reference: publication PMC6457526, “Structure-based molecular characterization and regulatory mechanism of the LftR transcription factor from Listeria monocytogenes: Conformational flexibilities and a ligand-induced regulatory mechanism” (PLoS ONE, 2019)

Columns and labels:
LftR = target: T1, LftR (Listeria monocytogenes, UniProt L8DXR9); assay: fluorescence polarization assay; assay type: binding
T1 construct: full length, 108 residues, expressed in E. coli; homodimer

[1] = target: the molecule itself; assay: SEC; Superdex 200 10/300, 20 mM HEPES pH 7.4, 150 mM NaCl; apparent molecular weight from gel filtration standards
LftR L69A = LftR L69A (Listeria monocytogenes, UniProt Q8Y923 1-108, L69A); assay: fluorescence polarization; FP: 28-mer OP-1 with 5' fluorescein, ex 485 nm / em 535 nm, single-site fit (Prism 5); buffer, salt, pH and temperature of FP and EMSA not given in the material; conditions: protein: recombinant; tags: C-terminal His6; chain copies: 2; label: 5' fluorescein on top strand
LftR K56A = LftR K56A (Listeria monocytogenes, UniProt Q8Y923 1-108, K56A); assay: as above; conditions: protein: recombinant; tags: C-terminal His6; chain copies: 2; label: 5' fluorescein on top strand
LftR Y28A = LftR Y28A (Listeria monocytogenes, UniProt Q8Y923 1-108, Y28A); assay: as above; conditions: protein: recombinant; tags: C-terminal His6; chain copies: 2; label: 5' fluorescein on top strand
LftR R53A = LftR R53A (Listeria monocytogenes, UniProt Q8Y923 1-108, R53A); assay: as above; conditions: protein: recombinant; tags: C-terminal His6; chain copies: 2; label: 5' fluorescein on top strand
LftR K9A = LftR K9A (Listeria monocytogenes, UniProt Q8Y923 1-108, K9A); assay: as above; conditions: protein: recombinant; tags: C-terminal His6; chain copies: 2; label: 5' fluorescein on top strand
LftR wildtype = LftR wildtype (Listeria monocytogenes, UniProt Q8Y923 1-108); assay: as above; conditions: protein: recombinant; tags: C-terminal His6 (LftRCtH); chain copies: 2; label: 5' fluorescein on top strand

Molecule: CC[n+]1c(-c2ccccc2)c2cc(N)ccc2c2ccc(N)cc21 [ethidium bromide]
- Kd (LftR): 3700 ± 1170 nM

B1: LftR_(ΔNtH), tag-free LftR protein after thrombin removal of the N-terminal His6 tag (natural protein)
chain: GSAKDPMKGLTELLKGSLEGMILERISRGETYGYEITKYLNDLGFDEIVEGTVYTILVRLEKKGLVEIEKKKSELGPPRKFYTLSPAGEEELAIFWKRWDFIQGKIMQVKGGQA
notes: six additional vector-derived amino acids left at the N-terminus after thrombin cleavage (numbered -5 to 0 in the structure); LftR, PadR-2 subfamily transcription factor of Listeria monocytogenes, encoded by lmo0719; 108 residues; Expressed from a modified pET49b vector with N-terminal His6 tag and thrombin site; also called Listeria protein facilitating invasion/transcriptional regulator; …
- stoichiometry N [1]: 2

B2: LftRCtH, LftR with a C-terminal His6 tag (natural protein)
chain: MKGLTELLKGSLEGMILERISRGETYGYEITKYLNDLGFDEIVEGTVYTILVRLEKKGLVEIEKKKSELGPPRKFYTLSPAGEEELAIFWKRWDFIQGKIMQVKGGQA
notes: LftR, PadR-2 subfamily transcription factor of Listeria monocytogenes, encoded by lmo0719; 108 residues; Cloned NdeI/XmaI into a modified pET49b vector with a C-terminal His6 tag; source: E. coli BL21 (DE3), purified (Ni-NTA); not shown: His6, C-terminal, kept
- stoichiometry N [1]: 2

B3: OP-1 28-mer dsDNA (FP) (dsDNA)
DNA 1: GTATTACTATATACTTGTACCTAGTAAC
DNA 2: GTTACTAGGTACAAGTATATAGTAATAC
- Kd (LftR L69A): 62.6 ± 1.3 nM
- Kd (LftR K56A): 28.7 ± 2.3 nM
- Kd (LftR Y28A): 89.6 ± 1.9 nM
- Kd (LftR R53A): 40.1 ± 0.8 nM
- Kd (LftR K9A): 197 ± 12.1 nM
- Kd (LftR wildtype): 6.2 ± 1.5 nM
